Test results: patent US20240392262A1, “TRANSPOSASE AND USES THEREOF” (Poseida Therapeutics, Inc., published 2024)

Tests used:
[1] = target: T1, PAH6 Left TAL-PBx (synthetic construct); experiment: cell_activity; left only; conditions: tags: 3xFlag, SV40 NLS
T1 chain: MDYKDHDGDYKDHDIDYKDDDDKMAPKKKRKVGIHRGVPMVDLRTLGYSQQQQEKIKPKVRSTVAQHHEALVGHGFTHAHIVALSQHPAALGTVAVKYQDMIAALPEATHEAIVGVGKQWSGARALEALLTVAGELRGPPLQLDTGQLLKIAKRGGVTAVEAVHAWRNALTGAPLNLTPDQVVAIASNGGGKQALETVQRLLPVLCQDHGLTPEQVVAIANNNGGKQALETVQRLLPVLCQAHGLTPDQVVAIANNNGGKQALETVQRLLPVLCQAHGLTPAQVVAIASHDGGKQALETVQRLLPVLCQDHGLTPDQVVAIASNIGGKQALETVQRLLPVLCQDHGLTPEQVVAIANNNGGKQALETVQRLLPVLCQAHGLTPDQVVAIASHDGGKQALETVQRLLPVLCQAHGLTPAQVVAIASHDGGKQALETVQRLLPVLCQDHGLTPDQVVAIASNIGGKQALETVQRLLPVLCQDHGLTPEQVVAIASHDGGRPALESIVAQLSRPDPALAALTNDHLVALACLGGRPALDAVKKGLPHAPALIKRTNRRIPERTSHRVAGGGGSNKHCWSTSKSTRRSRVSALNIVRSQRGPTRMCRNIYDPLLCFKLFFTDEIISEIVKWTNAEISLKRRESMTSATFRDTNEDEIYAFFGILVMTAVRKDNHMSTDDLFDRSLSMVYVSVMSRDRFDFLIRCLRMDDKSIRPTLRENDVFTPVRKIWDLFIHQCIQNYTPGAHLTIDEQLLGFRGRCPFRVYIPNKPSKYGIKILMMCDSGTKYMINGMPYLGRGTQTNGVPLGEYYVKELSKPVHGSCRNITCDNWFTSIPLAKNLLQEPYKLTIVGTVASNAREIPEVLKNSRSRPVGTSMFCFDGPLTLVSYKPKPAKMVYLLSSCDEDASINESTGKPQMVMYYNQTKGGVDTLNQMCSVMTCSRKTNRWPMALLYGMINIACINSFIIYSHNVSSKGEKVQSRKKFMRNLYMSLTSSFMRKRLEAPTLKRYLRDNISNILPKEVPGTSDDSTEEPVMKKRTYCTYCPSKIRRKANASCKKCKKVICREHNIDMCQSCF

[2] = target: T2, PAH6 Right TAL-PBx (synthetic construct); experiment: cell_activity; right only; conditions: tags: 3xFlag, SV40 NLS
T2 chain: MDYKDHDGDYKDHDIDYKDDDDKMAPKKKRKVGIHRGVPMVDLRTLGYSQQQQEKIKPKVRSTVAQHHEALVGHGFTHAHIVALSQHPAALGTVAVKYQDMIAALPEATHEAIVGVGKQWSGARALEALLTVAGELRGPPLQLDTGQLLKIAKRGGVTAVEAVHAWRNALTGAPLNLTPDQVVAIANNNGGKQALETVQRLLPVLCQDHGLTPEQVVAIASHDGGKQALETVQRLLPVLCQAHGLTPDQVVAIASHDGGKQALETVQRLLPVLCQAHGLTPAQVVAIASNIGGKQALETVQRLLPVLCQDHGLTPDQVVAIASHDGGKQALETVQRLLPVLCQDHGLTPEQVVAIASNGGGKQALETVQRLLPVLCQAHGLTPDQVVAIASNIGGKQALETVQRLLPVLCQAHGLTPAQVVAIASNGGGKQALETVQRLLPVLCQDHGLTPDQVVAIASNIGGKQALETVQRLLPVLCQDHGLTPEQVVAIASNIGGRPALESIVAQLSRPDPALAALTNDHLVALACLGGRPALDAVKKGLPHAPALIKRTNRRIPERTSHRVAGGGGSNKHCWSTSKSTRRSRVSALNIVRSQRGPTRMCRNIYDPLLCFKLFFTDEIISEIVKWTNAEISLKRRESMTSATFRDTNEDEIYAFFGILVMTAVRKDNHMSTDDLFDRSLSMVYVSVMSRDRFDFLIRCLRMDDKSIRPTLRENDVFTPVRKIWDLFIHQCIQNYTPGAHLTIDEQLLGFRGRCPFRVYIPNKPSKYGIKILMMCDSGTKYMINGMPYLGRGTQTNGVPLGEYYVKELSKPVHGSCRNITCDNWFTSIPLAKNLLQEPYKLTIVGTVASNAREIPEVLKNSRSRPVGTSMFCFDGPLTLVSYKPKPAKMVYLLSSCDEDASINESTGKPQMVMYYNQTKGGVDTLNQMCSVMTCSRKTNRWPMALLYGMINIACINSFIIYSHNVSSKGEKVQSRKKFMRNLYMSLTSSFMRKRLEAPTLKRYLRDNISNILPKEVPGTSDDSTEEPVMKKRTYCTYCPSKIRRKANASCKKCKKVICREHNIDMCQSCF

B1: PAH6 target (dsDNA)
DNA 1: TTGGCAGCCACTGTCCTAAATATTTTAACCAAATCAAAATCTTATAGTGGCA
DNA 2: TGCCACTATAAGATTTTGATTTGGTTAAAATATTTAGGACAGTGGCTGCCAA
activity [1]: 2.7 % GFP+ | activity [2]: 2.5 % GFP+
